Data as given in patent US20250339531A1, “DUX4 POLYPEPTIDES AND NUCLEIC ACIDS FOR TREATING INFLAMMATORY AND AUTOIMMUNE CONDITIONS” (Fred Hutchinson Cancer Center, priority 2021, published 2025).

Legend:
pSTAT1-Y701, pSTAT1-S727 = target: T1, pSTAT1-Y701, pSTAT1-S727 (Homo sapiens, UniProt P42224); assay: Western analysis of whole-cell extracts for STAT1 and pSTAT1; type: cell-based; conditions: doxycycline and IFNG
T1 construct: co-localization of endogenous STAT1 and pSTAT1 701 with the iDUX4-CTD; endogenous in cells; host or cells: MB135 human myoblasts carrying doxycycline-inducible DUX4 / DUX4-CTD / DUXB / Dux transgenes, with or without IFNG
T1 sequence (P42224 1-750): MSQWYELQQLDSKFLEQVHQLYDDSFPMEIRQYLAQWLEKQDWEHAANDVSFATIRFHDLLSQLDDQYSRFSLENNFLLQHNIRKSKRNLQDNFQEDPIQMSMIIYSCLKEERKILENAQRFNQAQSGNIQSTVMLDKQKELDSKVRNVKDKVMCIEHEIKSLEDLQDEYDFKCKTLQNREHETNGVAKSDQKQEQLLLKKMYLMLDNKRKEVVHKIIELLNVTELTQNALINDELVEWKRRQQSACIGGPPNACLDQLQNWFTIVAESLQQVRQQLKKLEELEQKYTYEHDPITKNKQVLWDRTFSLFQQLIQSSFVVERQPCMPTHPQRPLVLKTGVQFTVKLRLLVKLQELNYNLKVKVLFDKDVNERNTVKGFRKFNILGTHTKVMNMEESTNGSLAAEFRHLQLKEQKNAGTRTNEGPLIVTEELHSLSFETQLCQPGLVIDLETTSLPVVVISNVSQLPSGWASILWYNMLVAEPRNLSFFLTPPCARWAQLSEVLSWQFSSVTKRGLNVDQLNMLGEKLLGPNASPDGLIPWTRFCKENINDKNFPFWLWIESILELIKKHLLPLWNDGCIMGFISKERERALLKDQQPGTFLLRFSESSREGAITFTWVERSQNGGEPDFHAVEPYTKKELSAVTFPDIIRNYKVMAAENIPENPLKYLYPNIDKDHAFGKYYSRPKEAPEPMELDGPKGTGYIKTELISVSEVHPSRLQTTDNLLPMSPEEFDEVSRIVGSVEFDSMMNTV
Experimental: Protein samples were harvested in RIPA buffer [150 mM NaCl, 1% NP-40, 0.5% Na-deocycholate, 1% SDS, 25 mM Tris-HCl pH7.4] supplemented with protease and phosphatase inhibitor tablets (Pierce), followed by sonication in Diagenode Bioruptor. Lysate was cleared by centrifugation at 16000×g and quantified using a Pierce BCA assay (Thermo Fisher Scientific). Samples were run on NuPAGE precast polyacrylamide gels (Invitrogen) and transferred to PVDF membrane. Membranes were blocked in PBS containing 0.1% Tween-20 and 5% non-fat dry milk before overnight incubation at 4° C. with primary antibodies (see resource table for a list of antibodies used in this study). Membranes were incubated with horseradish peroxidase-conjugated secondary antibodies for 1 hour at room temperature and SuperSignal chemiluminescent substrate (Thermo Scientific) was used for detection on film with a Mini-medical 90 processor. Membranes were stripped with Restore Western Blot Stripping Buffer (Pierce).

[1] = tested on: interferon-stimulated genes IFIH1, ISG20, CXCL9, and CD74; assay: IFNG induction of interferon-stimulated genes, RT-qPCR in MB135 cells with doxycycline-inducible transgenes; type: cell-based, human; conditions: MB135 cells, doxycycline-induced transgene, continuous protocol, IFNG 16 h
Experimental: All myoblast experiments were conducted in immortalized MB135 or MB200 myoblast cell lines (isolated from a control or FSHD2 subject, respectively cultured in Ham's F-10 Nutrient Mix (Gibco) supplemented with 15% fetal bovine serum (Hyclone), 100 U/100 μg/ml penicillin/streptomycin (Gibco), 1 μM dexamethasone (Sigma), and 10 ng/ml recombinant human basic fibroblast growth factor (PeproTech). To differentiate the myoblasts to myotubes, media was changed to DMEM supplemented with 10 μg/ml insulin (Sigma) and 10 μg/ml transferrin (Sigma). Cell lines containing doxycycline-inducible transgenes were additionally cultured with 2 μg/mL puromycin (Sigma). Transgenes were induced with 1 μg/mL of doxycycline (Sigma) for 4 hours prior to other treatments for a total of 20 hrs. The Kitra-SRS cells (RRID:CVCL_YI69) were provided by Dr. H. Otani and Osaka University (Nakai et al., 2019) and were cultured in DMEM supplemented with 10% fetal bovine serum (Hyclone) and 100 U/100 μg/ml penicillin/streptomycin (Gibco). Biological replicates consisted of independent but parallel experiments, such as simultaneously stimulating three cell culture plates with IFNγ. Technical replicates consisted of repeat measurements of the same biological sample, such as loading the same biological sample in triplicate for analysis by RT-qPCR.
Myoblasts were transfected with either (final concentrations) 10 μM 2′,3′-cGAMP (Sigma Aldrich), 2 μg/mL poly(I:C) (Invitrogen), or 1 μg/mL 3′ppp-dsRNA RIG-I ligand (Dan Stetson Lab, UW) using Lipofectamine 2000 according to manufacturer's protocol, or were stimulated with 1000U IFNβ (PeproTech) or 200 ng/ml IFNγ (R+D Systems) by addition directly to cell culture medium. After 16 hours of immune stimulation, RNA was collected from cells using the NucleoSpin RNA Kit (Macherey-Nagel) according to manufacturer's instructions. RNA samples were quantified by nanodrop and 1 μg of RNA per sample was treated with DNase I Amplification Grade (Thermo Fisher), and then synthesized into cDNA using the Superscript IV First-Strand Synthesis System, including oligo dT primers (Invitrogen). qPCR was run in 384-well plates on an Applied Biosystems QuantStudio 6 Flex Real-Time PCR System (ABI) and analyzed in Microsoft Excel.

B1: DUXB: related factor in the DUX family, doxycycline-inducible 3×FLAG-NLS-DUXB control, SEQ ID NO:106 (protein)
chain: DYKDHDGDYKDHDIDYKDDDDKPPKRMRREPKKKRKVNLEGTSGGILQKEFWRNRIQYNQSQKDILQSWFQHDPFPDKAAREQLAKEIGVPESNIQVWFKNYRVKQRKLDYKCFSEKDQTQGHDQSQHLTQEYLPKEARQKQTFITWTQKNRLVQAFERNPFPDIATRKKLAEQTGLQESRIQMWFQKQRSLYLKKSRMEPMNLLVDDPNERPDATVGWHPINLFLPTDSSHYFSCSHSSSGHETLPPVLPSTQAPWDPFRFHVSQGPNVMIMQPTQAVQEGEKSDQPLIIPNHLLTLPILTKDLDTPTPFWLQYQEEHQNHKEHSGSGVPQVKSHSQPEPEHREQQPLNLGQFDISNILQRWDEICQALLAEWEPLKGTH
modifications: 3xFLAG-NLS tag
- abundance of pSTAT1 and total STAT1 (pSTAT1-Y701, pSTAT1-S727): did not increase either form of phosphorylated STAT1
- suppression of IFNG induction of ISGs (IFIH1, ISG20, CXCL9, CD74) [1]: did not suppress ISG induction by IFNG
